Results taken from patent US20240294650A1 (Alector, published 2024).

Columns and labels:
[1] = target: T1, recombinant cynomolgus MerTK extracellular domain (cynomolgus, UniProt Q12866 21-505 (human entry)); test: SPR Carterra LSA, Ab immobilised
T1 construct: also called cyno MerTK ECD; not shown: polyHis or TEVS/Thrombin/murine IgG2a-Fc tag
T1 chain: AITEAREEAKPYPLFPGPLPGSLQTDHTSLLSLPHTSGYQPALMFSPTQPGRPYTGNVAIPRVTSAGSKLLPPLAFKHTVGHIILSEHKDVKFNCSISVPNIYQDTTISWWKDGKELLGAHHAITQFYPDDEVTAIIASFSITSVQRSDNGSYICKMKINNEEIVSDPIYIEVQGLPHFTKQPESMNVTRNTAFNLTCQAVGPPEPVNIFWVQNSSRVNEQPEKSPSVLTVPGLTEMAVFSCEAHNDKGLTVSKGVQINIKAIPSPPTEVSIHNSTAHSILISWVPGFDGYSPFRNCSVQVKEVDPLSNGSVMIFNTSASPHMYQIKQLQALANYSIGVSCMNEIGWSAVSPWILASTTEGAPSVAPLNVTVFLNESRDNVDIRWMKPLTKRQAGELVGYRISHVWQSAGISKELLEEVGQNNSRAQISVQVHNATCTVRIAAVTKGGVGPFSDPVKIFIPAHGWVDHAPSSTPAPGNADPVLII
Method in brief: (§1)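 Surface plasmon resonance on a Carterra LSA measured affinity of immobilized antibodies for human, cynomolgus or mouse MerTK ectodomain diluted in HBS-TE with 0.5 mg/ml BSA. Analytes flowed over the full array, surfaces were regenerated with Protein A/G Elution Buffer plus 1M NaCl or 10 mM Glycine pH 2.5, and spots binding under 25 RU were discarded before kinetic fitting.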

[2] = target: T1, recombinant cynomolgus MerTK …; test: SPR Carterra LSA
Protocol: Binding kinetics of anti-MerTK IgG1 antibodies of the present disclosure to human, cyno, and murine MerTK were evaluated using a Carterra LSA instrument (Carterra, Salt Lake City, UT). […] A HC200M sensor chip (Carterra) was activated using the single channel flow cell with a 7-minute injection of a 1:1:1 mixture of 100 mM MES pH 5.5, 100 mM sulfo-NHS, 400 mM EDC (all reconstituted in MES pH 5.5; 100 μl of each mixed in vial immediately before running assay). After switching to the multi-channel array flow cell, the antibodies were injected over the activated chip in three 96-spot arrays for 10 minutes each. The remaining unconjugated active groups on the chip were then blocked by injecting 1M Ethanolamine pH 8.5 (Carterra) for 7 minutes using the single channel flow cell. The resulting sensor chip contained three spots for each antibody, at three different densities. Two independent experiments were performed as follows, resulting in an N of between one and six determinations for each antibody. Spots that yielded less than 25 RU of analyte binding were excluded from further analysis.
After priming with running buffer (HBS-TE, Carterra) with 0.5 mg/ml BSA (Sigma), the immobilized anti-MerTK antibodies were tested for their ability to bind to several forms of recombinant MerTK extracellular domain, including human, cynomolgus, and mouse orthologs as described above. Estimates of affinity were generated by injecting each analyte over the entire antibody array using the single channel flow cell. MerTK analytes were diluted with running buffer, in a series of six, three-fold serial dilutions starting from 1 μM for human and cynomolgus MerTK, and 600 nM for mouse MerTK. Analytes were injected for 5 minutes, and dissociation was followed for 10 minutes. After each analyte injection, antibodies were regenerated with either Protein A/G Elution Buffer (Thermo) with 1M NaCl (Teknova), or with 10 mM Glycine pH 2.5. Three buffer blanks were run between each series (one species per series). Data were processed and analyzed using NextGenKIT high-throughput kinetics analysis software (Carterra).

[3] = target: T2, recombinant murine MerTK extracellular domain (mouse, UniProt Q60805 19-497); test: SPR Carterra LSA, Ab immobilised
T2 construct: also called Mouse MerTK; murine MerTK ECD; not shown: polyHis or TEVS/Thrombin/murine IgG2a-Fc tag
T2 sequence: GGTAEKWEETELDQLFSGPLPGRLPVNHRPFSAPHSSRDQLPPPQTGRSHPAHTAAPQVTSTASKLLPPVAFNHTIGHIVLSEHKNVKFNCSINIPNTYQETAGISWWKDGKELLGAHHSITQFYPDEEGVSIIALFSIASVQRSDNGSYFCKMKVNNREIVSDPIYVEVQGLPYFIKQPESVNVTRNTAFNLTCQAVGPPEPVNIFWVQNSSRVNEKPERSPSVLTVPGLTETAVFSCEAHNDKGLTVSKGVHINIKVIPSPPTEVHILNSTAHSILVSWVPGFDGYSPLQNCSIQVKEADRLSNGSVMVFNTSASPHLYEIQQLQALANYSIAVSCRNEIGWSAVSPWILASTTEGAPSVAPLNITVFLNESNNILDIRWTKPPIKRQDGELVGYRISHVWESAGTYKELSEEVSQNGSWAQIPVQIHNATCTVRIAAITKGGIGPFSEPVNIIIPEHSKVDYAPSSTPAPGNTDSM
Method in brief: as §1

B1: MTK-223 (antibody, human IgG1, V domains shown)
VH: DVQLQESGPGLVKPSQSLSLTCSVTGYSITSGYYWNWIRQFPGNKLEWMGYISYDGTNNYNPSLKNRISITRDTSENQFFLKLNSVTTEDTATYFCVRGAGYWGQGTTLTVSS
VL: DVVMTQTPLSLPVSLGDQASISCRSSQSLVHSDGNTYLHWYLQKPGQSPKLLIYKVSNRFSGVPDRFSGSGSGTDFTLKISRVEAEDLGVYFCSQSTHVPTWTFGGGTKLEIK
Kd [1]: 190 nM | Ratio of KD for Cynomolgus vs Human MerTK [2]: 2.5 ratio

B2: MTK-231 (antibody, human IgG1, V domains shown)
VH: DVQLQESGPGLVKPSQSLSLTCSVTGYSITSGYYWNWIRQFPGNKLEWMGYISYDGTYNYHPSLKNRISITRDTSKNQFFLTLNSVTTEDTATFYCTRGGGYWGQGTSVTVSS
VL: DVVMTQTPLSLPVSLGDQASISCRSSQSLVHSDGNTYLHWYLQKPGQSPKLLIYKVSNRFSGVPDRFSGSGSGTDFTLKISRLEAEDLGIYFCSQTTHIPLTFGSGTKLEIK
Kd [1]: 48 nM | Ratio of KD for Cynomolgus vs Human MerTK [2]: 1.8 ratio

B3: MTK-220 (antibody, V domains shown)
VH: EVQLVESGGGLVKPGGSLKLSCAASGFTFSDYGMHWVRQAPEKGLEWVAFISGGSGTIYYEDTVKGRFTISRDNAKNTLFLQMTSLRSEDTAMYYCTRGGNYFDYWGQGTTLTVSS
VL: NIMLTQSPSSLAVSAGEKVTMTCKSSQSVLYSSNQKNYLAWYQQKPGQSPKLLIYWASTRESGVPDRFTGSGSGTDFTLTISNVQAEDLAVYYCHQYFSSWTFGGGTKLEIK
Kd [1]: 410 nM | Ratio of KD for Cynomolgus vs Human MerTK [2]: 2.7 ratio

B4: MTK-204 (antibody, human IgG1, V domains shown)
VH: EVQLVESGGGLVKPGGSLKLSCAASGFTFSDYGMHWVRQAPEKGLEWVAYISSGTSTIYYEDTVKGRFTISRDNAKNTLFLQMTSLRSEDTAMYYCARGGLLFDYWGQGTTLTVSS
VL: NIMMTQSPSSLAVSAGEKVTMSCKSSQSVLYSSNQKNYLAWYQQKPGQSPKLLIQWASTRESGVPDRFTGSGSETDFTLTIRSVQAEDLAVYYCHQYFSSWTFGGGTKLEIK
Kd [1]: 680 nM | Ratio of KD for Cynomolgus vs Human MerTK [2]: 2.8 ratio

B5: MTK-202 (antibody, human IgG1, V domains shown)
VH: EVQLVESGGGLVKPGGSLKLSCAASGFTFSDFGMHWVRQVPEKGLEWVAFISGGSNTIYYTDTVKGRFTISRDNAKNTLFLQMTSLRSEDTAMYYCVRNGNSFAYWGQGTLVTVSA
VL: NIMMTQSPSSLAVSAGEKVTMNCKSSQSVLYSSNQKNYLAWYQQKPGQSPKLLIYWASTRESGVPDRFTGSGSGTDFTLTISNIQAEDLAIYYCHQYFFSWTFGGGTKLEIK
Kd [1]: 160 nM | Ratio of KD for Cynomolgus vs Human MerTK [2]: 4.8 ratio

B6: MTK-215 (antibody, human IgG1, V domains shown)
VH: EVQLVESGGGLVKPGGSLKLSCAASGFIFSDYGMHWVRQAPEKGLEWVAYISSGSSTIYYGDTVKGRFTISRDNAKNTLFLQMTSLRSEDTAMYYCAKGGRYGAMDYWGHGTSVTVSS
VL: DIVLTQSPATLSVTPGDSVSLSCRASQSISNNLHWYQQKSHESPRLLIKNPSQSISGIPSRFGARGSGTDFTLIINSVETEDLGVYFCQQSNSWPFTFGSGTKLEIK
Kd [1]: 1600 nM | Ratio of KD for Cynomolgus vs Human MerTK [2]: 4.3 ratio

B7: MTK-225 (antibody, human IgG1, V domains shown)
VH: EVQLQQSGPELVKPGASVKIFCKASGYTFTAYNMDWVKQSHGKSLEWIGDINPNNGGTIYNQKFKGKATLTVDKSSSTAYMELRSLTSEDTAVYYCARRRRYGNTYYWYFDVWGTGTTVTVSS
VL: DIQMTQSPASLSVSVGETVTITCRASENIYSSLAWYQQKQGKSPQLLVYAATNLADGVPSRFSGSGSGTQFYLKINGLQSEDFGSYYCQHFWGTSYTFGGGTKLEIK
Kd [1]: 80 nM | Ratio of KD for Cynomolgus vs Human MerTK [2]: 1.5 ratio

B8: MTK-221 (antibody, human IgG1, V domains shown)
VH: QVTLKESGPGMLQSSQTLSLTCSFSGFSLSTSGMGVSWIRQPSGKGLEWLAHIYWDDDKRYNTSLQSRLTISKDTSRNQVFLKITSVDTADTATYFCGRLGAYSAFPYYFDYWGQGTTLTVSS
VL: DIQMTQSPSSLSASLGGKVTITCKASQDIHKHIAWYQHKPGKGPRLLIHYTSTLQPGIPSRFSGSGSGRDYSFSISNLEPEDLATYYCLQYDNLWTFGGGTKLEIK
binding result [3]: no binding (tested: analyte up to 600 nM) | Kd [1]: 38 nM | Ratio of KD for Cynomolgus vs Human MerTK [2]: 1.3 ratio

B9: MTK-208 (antibody, human IgG1, V domains shown)
VH: QVQLQQPGAELVVPGASVRLSCKASGYTFINYWMHWVKQRPGQGLEWIGEIDPSDSYANYNQKFKDKSTLSLDKSSSTAYMQLSSLTSEDSAVYYCARCDYYGRLDYWGQGTTLTVSS
VL: QVVLTQSPAIMSASPGEKVTITCSASSSVSYMLWFQQKPGTSPKLWIYSTSNLASGVPARFSGSGSGTSYSLTISRLEAEDAATYYCQQRSSYPPITFGAGTKLELK
binding result [3]: no binding (tested: analyte up to 600 nM) | Kd [1]: 34 nM | Ratio of KD for Cynomolgus vs Human MerTK [2]: 1.8 ratio

B10: MTK-211 (antibody, human IgG1, V domains shown)
VH: QVQLQQSGAELMKPGASVKLSCKATGYTFTGYWIEWVKQRPGHGLEWIGEILPGSGGSNYNEKFKGKATFTADTSSNTAYIQLSSLTTEDSAIYCCARGEPSYFSDAGFAYWGQGTLVTVSA
VL: QIVLTQSPAVMSASPGEKVTMTCSASSSITYMHWYQQKPGTSPKRWIYDTSKLASGVPARFSGSGSGTSYFLTISSMEAEDVATYYCHQRSTYPYTFGGGTKLEIM
Kd [1]: 1.4 nM | Ratio of KD for Cynomolgus vs Human MerTK [2]: 1.1 ratio
